The values that follow come from paper PMC10592472 (Cell reports, 2023).

The target of assay [1] is LFA1 (αLβ2) (mouse (endogenous in primary T cells)) (UniProt P24063). Kind of assay: single-molecule imaging.
The target is the same in assay [2]. Kind of assay: single-molecule imaging. The source holds these as a separate data set.
Assay [3] has as its target LFA1 (αLβ2) (mouse (endogenous in primary T cells), UniProt P24063 24-1162; P11835 24-771). Put plainly: flow cytometry on cells. In general terms: Flow cytometry measures light scatter and fluorescence of single cells or particles in a stream.

Read-outs that look alike come from different tables or passages of the source.

Sequence of LFA1 (αLβ2) (mouse (endogenous in primary T cells)) (P24063 24-1162, chain 1 of 2): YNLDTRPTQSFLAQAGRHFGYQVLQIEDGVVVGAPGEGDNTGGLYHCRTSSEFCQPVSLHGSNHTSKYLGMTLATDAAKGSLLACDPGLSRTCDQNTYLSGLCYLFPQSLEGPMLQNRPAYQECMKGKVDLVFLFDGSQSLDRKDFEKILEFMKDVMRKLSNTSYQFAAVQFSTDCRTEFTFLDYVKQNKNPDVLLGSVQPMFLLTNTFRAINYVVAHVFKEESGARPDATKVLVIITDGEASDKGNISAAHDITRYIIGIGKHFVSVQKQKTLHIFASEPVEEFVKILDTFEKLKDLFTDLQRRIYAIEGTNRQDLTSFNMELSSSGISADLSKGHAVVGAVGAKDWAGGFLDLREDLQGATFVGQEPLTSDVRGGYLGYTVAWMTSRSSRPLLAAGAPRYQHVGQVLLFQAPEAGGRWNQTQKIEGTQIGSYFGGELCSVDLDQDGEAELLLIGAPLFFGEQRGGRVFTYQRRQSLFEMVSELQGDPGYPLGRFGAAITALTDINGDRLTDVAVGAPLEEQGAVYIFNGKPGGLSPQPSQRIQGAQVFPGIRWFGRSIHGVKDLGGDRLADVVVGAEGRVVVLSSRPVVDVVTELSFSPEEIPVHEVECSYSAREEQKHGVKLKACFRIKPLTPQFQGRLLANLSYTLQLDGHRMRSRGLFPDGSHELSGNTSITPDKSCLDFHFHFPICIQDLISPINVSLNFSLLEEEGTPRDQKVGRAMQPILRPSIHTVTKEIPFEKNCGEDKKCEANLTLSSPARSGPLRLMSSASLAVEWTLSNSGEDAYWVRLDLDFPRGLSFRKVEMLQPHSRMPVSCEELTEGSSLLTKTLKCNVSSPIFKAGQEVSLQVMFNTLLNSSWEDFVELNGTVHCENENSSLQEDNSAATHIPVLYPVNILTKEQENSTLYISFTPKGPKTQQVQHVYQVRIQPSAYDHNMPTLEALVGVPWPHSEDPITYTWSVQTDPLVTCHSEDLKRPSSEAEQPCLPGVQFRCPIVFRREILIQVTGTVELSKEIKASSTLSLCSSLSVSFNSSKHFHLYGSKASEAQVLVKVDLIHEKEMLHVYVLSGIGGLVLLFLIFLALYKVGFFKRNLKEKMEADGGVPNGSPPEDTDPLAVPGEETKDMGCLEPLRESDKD
Sequence of LFA1 (αLβ2) (mouse (endogenous in primary T cells)) (P11835 24-771, chain 2 of 2, further chain): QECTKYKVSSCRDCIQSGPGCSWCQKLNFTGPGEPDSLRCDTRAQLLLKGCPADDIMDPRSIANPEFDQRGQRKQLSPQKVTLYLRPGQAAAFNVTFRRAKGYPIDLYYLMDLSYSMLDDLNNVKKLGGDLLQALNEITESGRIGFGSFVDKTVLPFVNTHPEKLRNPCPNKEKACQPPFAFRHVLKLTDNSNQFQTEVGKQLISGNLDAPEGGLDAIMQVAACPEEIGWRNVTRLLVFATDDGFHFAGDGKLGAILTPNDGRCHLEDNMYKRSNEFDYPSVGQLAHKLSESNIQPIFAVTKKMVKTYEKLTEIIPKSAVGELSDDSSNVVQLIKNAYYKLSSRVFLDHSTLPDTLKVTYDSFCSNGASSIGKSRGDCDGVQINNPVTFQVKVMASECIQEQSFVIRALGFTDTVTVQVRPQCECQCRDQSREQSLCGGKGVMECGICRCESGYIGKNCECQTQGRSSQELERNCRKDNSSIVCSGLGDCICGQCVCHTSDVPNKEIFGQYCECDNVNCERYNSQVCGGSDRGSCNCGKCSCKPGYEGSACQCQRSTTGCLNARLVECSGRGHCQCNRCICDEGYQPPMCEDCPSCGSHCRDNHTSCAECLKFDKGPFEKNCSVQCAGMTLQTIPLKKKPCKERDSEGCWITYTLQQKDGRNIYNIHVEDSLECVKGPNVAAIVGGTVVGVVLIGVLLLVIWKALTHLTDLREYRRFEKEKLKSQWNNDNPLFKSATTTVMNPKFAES
Sequence of LFA1 (αLβ2) (P24063 24-1162, chain 1 of 2): as the sequence (P24063 24-1162, chain 1 of 2) above
Sequence of LFA1 (αLβ2) (P11835 24-771, chain 2 of 2): as the sequence (P11835 24-771, chain 2 of 2, further chain) above

For orientation: koff means a measure of how fast the partners let go of each other. A low value points to slow dissociation. With “mouse ICAM1-GPI (from UniProt P13597 28-537) (ligand)”, the off-rate (koff) in assay [1] turned out to be 0.398 s⁻¹; in assay [2], 0.03 s⁻¹.

B1: Mouse ICAM1-Fc (Fc fusion, UniProt P13597 28-485, looked up)
chain: QVSIHPREAFLPQGGSVQVNCSSSCKEDLSLGLETQWLKDELESGPNWKLFELSEIGEDSSPLCFENCGTVQSSASATITVYSFPESVELRPLPAWQQVGKDLTLRCHVDGGAPRTQLSAVLLRGEEILSRQPVGGHPKDPKEITFTVLASRGDHGANFSCRTELDLRPQGLALFSNVSEARSLRTFDLPATIPKLDTPDLLEVGTQQKLFCSLEGLFPASEARIYLELGGQMPTQESTNSSDSVSATALVEVTEEFDRTLPLRCVLELADQILETQRTLTVYNFSAPVLTLSQLEVSEGSQVTVKCEAHSGSKVVLLSGVEPRPPTPQVQFTLNASSEDHKRSFFCSAALEVAGKFLFKNQTLELHVLYGPRLDETDCLGNWTWQEGSQQTLKCQAWGNPSPKMTCRRKADGALLPIGVVKSVKQEMNGTYVCHAFSSHGNVTRNVYLTVLYHSQNN
Consider B1, for which, in assay [3], the “fold binding against WT T cells (Rasa3/Sipa1-KO T cells, Mn2+)” value was 2 fold.
